Reference: article PMC7294946

Biological target: PRMT1 (UniProt Q99873)
Assay: co-IP with Flag antibody, western blot
Conditions: reference: Flag-RUNX1 wild type; sites T207

RUNX1 (from UniProt Q01196) Flag-RUNX1 T207A
binding against the reference: weaker
